Patent US20100249383A1, “Novel Ligand Involved In The Transmigration Of Leukocytes Across the Endothelium and Uses Therefor” (The Regents of The University of California and The Burnham …, priority 2001, published 2010)
Several values for one entry are separate records, joined by “and”; a condition that tells them apart may be missing. Identical values can stand only once.

How the values were obtained:
HUVECs = test: Surface binding of iodinated S100A8/A9 to endothelial cells; design: species or system human
Procedure: Human umbilical vein endothelial cells (HUVECs) were grown in Endothelial Cell growth Medium (Cell Applications) at 37° C. in 5% CO2. Cell staining and Western blotting were performed to confirm expression of mAbGB3.1 antigens. HUVECS at passages 3-4 were used in the binding assays. Purified proteins were radioiodinated using Na^125I and Iodo-Beads Iodinating Reagent as per the manufacturer's protocols. Unbound label was removed on a Sephadex G25 column, followed by concentration of the void volume fractions using Centricon10 concentrators.
Cells grown to confluence in 12 well plates and activated with 1 μM PAF for 4 hr. Activated and unactivated cells were washed with cold HBSS and then incubated with 4 nM to 80 nM ^125I-S100A8/A9 in 1 ml of HBSS, or 20 nM labeled complex in the absence and presence of modulators at 4° C. for 2 h. The reaction was stopped by rapid removal of unbound label, and the cells were washed thrice with cold HBSS. They were solubilized in 1 M NaOH followed by addition of an equal volume of 1 M HCl, and the radioactivity associated with the lysates was measured using a gamma counter. […] Panels 2 and 3 show the results for HUVECs incubated with 20 nM labeled complex in the absence or presence of modulators, in 1 ml of HBSS at 4° C. for 2 hours.

[1] = system: [2-^3H]mannose-labeled CPAE glycoproteins; test: Precipitation of mannose-labeled glycoproteins and cross-binding; design: species or system bovine
Procedure: Calf pulmonary artery endothelial cells (CPAE) cells were labeled with [2-^3H] mannose at 20 μCi/ml for 24 h in alpha MEM containing 10% fetal bovine serum. Cells were harvested by trypsinization, washed thrice in PBS, and lysed in PBS containing protease inhibitors and 0.5% NP40. Protein-rich lysates were prepared by ultrafiltration on YM10 membranes. Purified S100A8/A9 or annexin I proteins were immobilized on Affigel-10, and mixed with the labeled glycoproteins from CPAE cells in 10 mM HEPES buffer pH 7.5 containing 150 mM NaCl, 5 mM KCl, 1.2 mM MgCl2 and 1.3 mM CaCl2 after preclearing the lysates with BSA-Affigel 10. For immunoprecipitations using mAbGB3.1, lysates were precleared with normal mouse IgG-protein G beads and then incubated with Protein G coupled to mAbGB3.1 IgG in PBS. After overnight incubation at 4° C., the individual pellets were washed free of all unbound label until no more counts appeared in the washes, and the radioactivity associated with the pellets was measured.
For cross-binding, label associated with each pellet was first eluted using high salt (5 M MgCl2, which eluted >70% bound label). The eluates were repeatedly desalted on YM10 membranes and resuspended in the respective buffers. Label eluted from mAbGB3.1 gels was mixed with immobilized S100A8/A9 or annexin I and vice versa. Again, after overnight incubation at 4° C., the individual pellets were washed free of all unbound label and counted. […] In comparison, immobilized annexin I precipitated only about 2-3% of mannose labeled glycoproteins from endothelial cells (data not shown).

[2] = system: 0.3 M asialo-COO^− glycopeptide-BSA neoglycoproteins; test: ELISA binding of purified proteins to immobilized carboxylated bovine lung glycans; conditions: FIG. 19 or data not shown
Procedure: In additional ELISA experiments, 96-well plates were coated with 0.3 M asialo-COO^− glycopeptide-BSA neoglycoproteins (250 ng/well) for 4 h at 37° C. (control wells had BSA alone) and blocked with 3% BSA in PBS overnight. The wells were then incubated with purified human annexin I or S100A8/A9 complexes (as appropriate), in 10 mM HUES buffer pH 7.5 containing 150 mM NaCl, 5 mM KCl, 1.2 mM MgCl2 and 1.3 mM CaCl2, in the absence or presence of varying concentrations of 0.3 M asialo-COO^− glycopeptides or 0.3 M asialo-CONHMe-glycopeptides for 2 h at room temperature. This was followed by incubation with anti-bovine annexin I antibody or anti-human S100A8 or anti-S100A9 for 2 h at room temperature. Wells were then washed and incubated with alkaline phosphatase conjugated goat anti-mouse IgG, followed by development with p-nitrophenyl phosphate substrate.
In this Example, experiments conducted to assess amphoterin binding to COO^− glycopeptide coated plates was assayed as described earlier for annexin I and S100 proteins. In addition, bound protein was detected using anti-amphoterin. mAbGB3.1 binding to sRAGE was assessed by first coating sRAGE on microtiter wells for 4 h at 37° C. After blocking with 3% BSA in PBS overnight, wells were incubated with mAbGB3.1 in the presence and absence of COO^−or CONHMe-glycopeptide and developed as described above.

[3] = biological target: [2-3H]mannose-labeled CPAE glycoproteins eluted from mAbGB3.1; test: rebinding to immobilized S100A8/A9 of label eluted from mAbGB3.1 (1,961 cpm added)
[4] = biological target: cell surface binding sites on human umbilical vein endothelial cells (HUVECs); test: binding of 125I-S100A8/A9 to unactivated HUVECs (data not shown)
[5] = biological target: cell surface binding sites on human umbilical vein endothelial cells (HUVECs); test: competition of 20 nM 125I-S100A8/A9 on PAF-activated HUVECs by unlabeled S100A8/A9
[6] = biological target: [2-3H]mannose-labeled CPAE glycoproteins eluted from mAbGB3.1; test: rebinding to immobilized S100A8/A9 of label eluted from mAbGB3.1 (4,951 cpm added)
[7] = biological target: [2-3H]mannose-labeled CPAE glycoproteins; test: precipitation of [2-3H]mannose-labeled CPAE glycoproteins by S100A8/A9 on Affigel-10 (20,386 cpm added)
[8] = biological target: [2-3H]mannose-labeled CPAE glycoproteins; test: precipitation of [2-3H]mannose-labeled CPAE glycoproteins by S100A8/A9 on Affigel-10 (10,286 cpm added)
[9] = biological target: [2-3H]mannose-labeled CPAE glycoproteins; test: precipitation of [2-3H]mannose-labeled CPAE glycoproteins by annexin I on Affigel-10 (data not shown)
RAGE = biological target: T1, RAGE (Bos taurus, UniProt Q28173); test: Binding assays using ^125I amphoterin on immobilized RAGE; design: species or system bovine
T1 construct: from tissue; host or cells: bovine lung (inferred); amphoterin from baculovirus-infected insect cells
T1 sequence (Q28173 23-416): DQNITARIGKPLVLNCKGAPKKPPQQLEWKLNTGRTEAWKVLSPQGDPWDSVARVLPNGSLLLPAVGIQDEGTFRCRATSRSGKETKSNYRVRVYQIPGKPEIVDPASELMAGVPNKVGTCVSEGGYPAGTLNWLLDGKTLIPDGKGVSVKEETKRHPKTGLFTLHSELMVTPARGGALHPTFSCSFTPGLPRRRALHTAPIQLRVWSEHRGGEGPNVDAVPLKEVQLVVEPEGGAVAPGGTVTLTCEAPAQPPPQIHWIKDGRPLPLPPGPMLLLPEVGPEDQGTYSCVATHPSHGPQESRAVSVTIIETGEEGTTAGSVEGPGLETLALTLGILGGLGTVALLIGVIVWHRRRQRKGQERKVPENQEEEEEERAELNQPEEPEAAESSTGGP
Procedure: Amphoterin was radioiodinated using Na ^125I and Iodo-Beads Iodinating Reagent (Pierce) to a specific activity of 5×10^3 cpm/ng protein. Saturation binding experiments were done by a slight modification of the method of Hori et al (Hori at al., J. Biol. Chem., 270:25752-61 [1995]). Briefly, purified RAGE was immobilized on microliter wells and the wells blocked with 3% BSA. Wells were incubated at 4° C. overnight with increasing concentrations of ^125I amphoterin in HBSS containing 0.1% BSA in the presence or absence of desialylated carboxylate-enriched (COO^−) or CONHMe bovine lung glycopeptides, or 20 μg/ml mAbGB3.1 or an unrelated anti-carbohydrate monoclonal antibody, or 100 fold excess of unlabeled amphoterin. Binding was also tested on RAGE deglycosylated by PNGase F under non-denaturing conditions. Wells were washed, bound amphoterin was eluted with 2 M NaCl, and radioactivity was measured using a gamma counter. Non-linear regression analysis was done using the GraphPad Prism program.

## S100A8/A9: heteromeric S100A8/S100A9 complex purified from human neutrophil cytosol
HUVECs; unlabeled ligand, 20 nM labeled complex, PAF-activated HUVECs, FIG. 20 Panel B, read-out: half maximal competition of specific binding of ^125I-S100A8/A9
  IC50: ~500 nM
[1]; primary binding
  % Bound Radioactivity (mean ± SD): 9% and 8.7 ± 0.5%
[1]; primary binding to mAbGB3.1, eluted label rebinding to S100A8/A9
  % Bound Radioactivity (mean ± SD): 31.5 ± 0.2%
[1]; primary binding to mAbGB3.1, eluted label rebinding to S100A8/A9, listed as S100A8/A9 complex
  % Bound Radioactivity (mean ± SD): about one-third
[1]; primary binding, listed as S100A8/A9 complex
  % Bound Radioactivity (mean ± SD): 9%
[2]
  binding to immobilized carboxylated vs neutralized glycans: same specificity of binding

## ^125I-S100A8/A9: purified S100A8/A9 radioiodinated using Na^125I
HUVECs; 4 nM to 80 nM, 4° C. 2 h, FIG. 20 Panel A
  binding on PAF-activated HUVECs: dose-dependent and saturable binding
HUVECs; data not shown
  binding to unactivated cells, less than to PAF-activated cells: 2 fold

B1: purified human S100A8/A9 complex from peripheral blood neutrophils (ligand)
chain 1: MLTELEKALNSIIDVYHKYSLIKGNFHAVYRDDLKKLLETECPQYIRKKGADVWFKELDINTDGAVNFQEFLILVIKMGVAAHKKSHEESHKE
chain 2: TCKMSQLERNIETIINTFHQYSVKLGHPDTLNQGEFKELVRKDLQNFLKKENKNEKVIEHIMEDLDTNADKQLSFEEFIMLMARLTWASHEKMHEGDEGPGHHHKPGLGEGTP
[3]
  cpm bound to gel: 615 cpm
[4]
  fold less binding to unactivated than to PAF-activated cells: 2 fold
[5]
  IC50: 500 nM
[6]
  cpm bound to gel: 1570 cpm
[7]
  cpm bound to gel: 1700 cpm
[8]
  cpm bound to gel: 928 cpm

B2: recombinant full-length human annexin I (E. coli BL21(DE3), pET23b) (protein)
chain: MAMVSEFLKQAWFIENEEQEYVQTVKSSKGGPGSAVSPYPTFNPSSDVAALHKAIMVKGVDEATIIDILTKRNNAQRQQIKAAYLQETGKPLDETLKKALTGHLEEVVLALLKTPAQFDADELRAAMKGLGTDEDTLIEILASRTNKEIRDINRVYREELKRDLAKDITSDTSGDFRNALLSLAKGDRSEDFGVNEDLADSDARALYEAGERRKGTDVNVFNTILTTRSYPQLRRVFQKYTKYSKHDMNKVLDLELKGDIEKCLTAIVKCATSKPAFFAEKLHQAMKGVGTRHKALIRIMVSRSEIDMNDIKAFYQKMYGISLCQAILDETKGDYEKILVALCGGN
[9]
  % of mannose labeled glycoproteins precipitated: 2 to 3%

B3: amphoterin: baculovirus expressed rat amphoterin, neurite growth-promoting protein, ligand of RAGE (protein)
chain: GKGDPKKPRGKMSSYAFFVQTCREEHKKKHPDASVNFSEFSKKCSERWKTMSAKEKGKFEDMAKADKARYEREMKTYIPPKGETKKKFKDPNAPKRPPSAFFLFCSEYRPKIKGEHPGLSIGDVAKKLGEMWNNTAADDKQPYEKKAAKLKEKYEKDIAAYRAKGKPDAAKKGVVKAEKSKKKKEEEDDEEDEEDEEEEEEEEDEDEEEDDDDE
RAGE; in presence of soluble COO^− glycopeptides
  Bmax: approximately 34.7±3.7 fmole/well
RAGE; native purified RAGE
  Bmax: approximately 52.7±4.3 fmole/well
[2]
  binding to immobilized carboxylated vs neutralized glycans: carboxylate dependent manner
